These results are taken from patent publication US20220306713A1.

In assay [1] the target is mouse PD-L1 on the surface of mouse tumor cell lines A20 and CT26 (mouse) (UniProt Q9EP73). Description: flow cytometry, PE-labelled protein, 0.5 ug in 100 ul, A20 cells (high PD-L1), after Fc block; A20-Blank X-AMean 76.61.
The target is the same in assay [2]. The assay is described as follows: flow cytometry, PE-labelled protein, 2.5 ug in 100 ul, A20 cells (high PD-L1), after Fc block; A20-Blank X-AMean 76.61.
The target is the same in assay [3]. Description: flow cytometry, PE-labelled protein, 2.5 ug in 100 ul, CT26 cells (low PD-L1), after Fc block; CT26-Blank X-AMean printed 254.50.
Assay [4] addresses recombinant human PD-L1 antigen (human) (UniProt Q9NZQ7). The assay is described as follows: SPR (Biacore T200), antibody captured on anti-human IgG Fc CM5 chip, recombinant human PD-L1 as analyte, 1:1 Langmuir fit.
Sequence of UniProt Q9NZQ7 (Q9NZQ7 19-238 limits assumed): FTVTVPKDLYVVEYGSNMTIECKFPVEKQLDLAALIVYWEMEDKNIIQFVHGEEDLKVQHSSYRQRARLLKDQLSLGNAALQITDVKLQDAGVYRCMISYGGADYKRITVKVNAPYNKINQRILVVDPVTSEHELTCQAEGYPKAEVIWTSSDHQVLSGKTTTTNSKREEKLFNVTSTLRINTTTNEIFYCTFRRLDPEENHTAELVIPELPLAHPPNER
For assay [5], the target named is recombinant human PD-1 antigen (human) (UniProt Q15116). Description: SPR (Biacore T200), antibody captured on anti-human IgG Fc CM5 chip, recombinant human PD-1 as analyte, 1:1 Langmuir fit.
Sequence of UniProt Q15116 (Q15116 25-167 limits assumed): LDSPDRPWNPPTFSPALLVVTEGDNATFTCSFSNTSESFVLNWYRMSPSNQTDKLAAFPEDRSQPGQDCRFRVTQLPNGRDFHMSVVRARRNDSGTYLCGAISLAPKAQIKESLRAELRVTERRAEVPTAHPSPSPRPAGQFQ

Sequence of UniProt Q9EP73 (Q9EP73 19-290): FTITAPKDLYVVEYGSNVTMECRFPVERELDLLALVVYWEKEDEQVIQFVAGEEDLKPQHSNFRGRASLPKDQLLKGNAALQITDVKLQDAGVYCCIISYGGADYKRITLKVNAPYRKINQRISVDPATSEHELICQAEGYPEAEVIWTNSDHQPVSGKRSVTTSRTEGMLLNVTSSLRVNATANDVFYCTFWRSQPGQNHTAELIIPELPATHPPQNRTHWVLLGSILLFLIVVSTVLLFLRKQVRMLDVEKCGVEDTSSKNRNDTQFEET

As to “anti-PD-L1(10F.9G2) antibody-HC-mIL-10 fusion protein (from UniProt P18893 19-178)”, the figures for the X-AMean in assay [1], in assay [2] and in assay [3] were 1830, 5930 and 590, respectively.
In the same order, the values of “rat-anti-mouse PD-L1 monoclonal antibody 10F.9G2” are 949, 4990 and 885.

B1: anti-human PD-L1 antibody 5G11 (antibody, from another filing, V domains shown)
VH: QVQLKQSGPGLVQPSQSLSITCTVSGFSLTTYGVHWVRQSPGKGLEWLGVIWRGVTTDYNAAFMSRLTITKDNSKSQVFFKMNSLQANDTAIYYCARLGFYAMDYWGQGTSVTVSS
VL: SIVMTQTPKFLLVSAGDRVTITCKASQSVSNDVAWYQQKPGQSPKLLIYYAANRYTGVPDRFTGSGYGTDFTFTISIVQAEDLAVYFCQQDYTSPYTFGGGTKLEIK
As for B1, in assay [4], the Kd was 0.29 nM, the dissociation rate constant (koff) stood at 0.000779 s⁻¹ and the kon was 2.65e+06 M⁻¹ s⁻¹.

B2: anti-human PD-1 antibody 7A4D (antibody, from another filing, V domains shown)
VH: QIQLVQSGSELKKPGASVKVSCKASGYTFTNFGMNWVRQAPGQGLKWMGWISGYTREPTYAADFKGRFVISLDTSVSTAYLQISSLKAEDTAVYYCARDVFDYWGQGTLVTVSS
VL: DIVLTQSPASLAVSPGQRATITCRASESVDNYGYSFMNWFQQKPGQPPKLLIYRASNLESGVPARFSGSGSRTDFTLTINPVEADDTANYYCQQSNADPTFGQGTKLEIKR
In the case of B2, in assay [5], the Kd was 0.83 nM, the koff is 0.000806 s⁻¹ and the kon is 974000 M⁻¹ s⁻¹.
